In paper PMC8430805 one finds stoichiometry N data, which are given here for one substance.

Assay [1] has as its target LysB endolysin (putative N-acetylmuramoyl-L-alanine amidase) from the prophage of Clostridium botuli (Clostridium botulinum E3 strain Alaska E43 (prophage)). The experiment in a line: AUC.
The target is the same in assay [2]. The experiment in a line: SEC.

As to “LysB endolysin (putative N-acetylmuramoyl-L-alanine amidase) from the prophage of Clostridium botuli (enzyme)”, the stoichiometry N in assay [1] and in assay [2] was 2 throughout.
